From PMC11845978 (Protein Science : A Publication of the Protein Society, 2025)

Target: the molecule itself
Assay: […]

B1: Hendra virus PNT3 (aa 200–310 of the P/V/W proteins), wild type, full-length PNT3 (domain or fragment)
chain: TPTEEPPVIPEYYYGSGRRGDLSKSPPRGNVNLDSIKIYTSDDEDENQLEYEDEFAKSSSEVVIDTTPEDNDSINQEEVVGDPSDQGLEHPFPLGKFPEKEETPDVRRKDS
binding result: binds
